Experimental data from US20160237160A1 (Bayer, published 2016).

Legend:
[1] = biological target: T1, TPP-599 (HUMAN-TNFRSF12Aaa28-80-hIgG1-Fc) (human); assay: SPR, TWEAKR-Fc immobilized, IgG injected, bivalent analyte model (avidity mode);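 further: kd derived as the ratio of fitted dissociation to association rate constants, with sensorgrams corrected against a reference flow cell and a buffer blank before fitting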
T1 construct: dimeric; also called human TWEAKR Fc; TWEAKR-Fc
Description: (§1) Sensorgrams were generated after in-line reference cell correction followed by buffer sample subtraction. The dissociation equilibrium constant (KD) was calculated based on the ratio of association (kₒₙ₁) and dissociation rated (koff1) constants, obtained by fitting sensorgrams with a bivalent analyte model using Biavaluation Software (version 4.0).

[2] = biological target: T2, TPP-601 (MURINE-TNFRSF12Aaa28-80-hIgG1-Fc) (murine); assay: as above
T2 construct: dimeric; also called murine TWEAKR Fc
Description: as §1

[3] = biological target: T3, TPP-1846 (MAC-TNFRSF12Aaa28-80-hIgG1-Fc) (macaca fascicularis); assay: as above
T3 construct: bivalent antigen; also called mac fasc TWEAKR Fc
Description: as §1

[4] = biological target: T4, TPP-1779 (RAT-TNFRSF12Aaa28-80-hIgG1-Fc) (rat); assay: as above
T4 construct: bivalent antigen; also called rat TWEAKR Fc
Description: as §1

[5] = biological target: T5, TPP-1778 (PIG-TNFRSF12Aaa28-80-hIgG1-Fc) (pig); assay: as above
T5 construct: bivalent antigen; also called pig TWEAKR Fc
Description: as §1

[6] = biological target: T6, TPP-1777 (DOG-TNFRSF12Aaa28-80-hIgG1-Fc) (dog); assay: as above
T6 construct: bivalent antigen; also called dog TWEAKR Fc
Description: as §1

[7] = biological target: T7, TPP-2614 (TweakR-ECD-34-68-hIgGFc-His-D47A) (human); assay: ELISA, antibody coated at 1 µg/ml, TWEAKR variant at 250 ng/ml, anti-HIS HRP; normalized by WT; the legend of B does not name the variant, D47A by paragraph 82 and paragraph 368
T7 construct: also called D47A TWEAKR mutein
Description: Antibodies were coated (1 μg/ml), TWEAKR variant was added at 250 ng/ml, detection via anti-HIS HRP. […] Antibodies were coated (1 μg/ml), TWEAKR variant was added 250 ng/ml, detection via anti-HIS HRP.

Kd [1]: 15 nM
Kd [2]: 4.1 nM
Kd [3]: 21.2 nM
Kd [4]: 4.3 nM
Kd [5]: 9.9 nM
Kd [6]: 6 nM
B1: TPP-2090 (antibody, human IgG1, kappa, V domains shown)
VH: EVQLLESGGGLVQPGGSLRLSCAASGFTFSPYPMIWVRQAPGKGLEWVSYISPSGGSTHYADSVKGRFTISRDNSKNTLYLQMNSLRAEDTAVYYCARGGDTYFDYFDYWGQGTLVTVSS
VL: DIQMTQSPSSLSASVGDRVTITCRASQSISGYLNWYQQKPGKAPKLLIYQASSLQSGVPSRFSGSGSGTDFTLTISSLQPEDFATYYCQQSYTSPFITFGQGTKVEIKR
notes: Human IgG1
binding result [7]: no binding (tested: 250 ng/ml (TWEAKR variant))
